From publication PMC13274938

Molecular target: Q23-APEX-GT2 trimer (Q23-APEX-GT1-T132R-S158T) (HIV-1 (Q23.17))
Assay: cryo-EM structure

B1: CH70-Apex2.01 Fab (Fab, V domains shown)
VH: QVQLQESGPGLVKPSETLSLTCAVSGGSISDDYYWTWIRQPPGKGLEWIGYIYGDGGDTKYNPSLKNRVTISIDTSKNHFSLKVNSMTGADTAVYYCAREGRGQFWYDEDYGQFYVPGGLDSWGQGVVVTVSS
VL: DIQMTQTPLSLSVSPGEPASISCRSSQSLLHTDGYDYLDWYLQKPGQSPQLLIYGGSDRPSGVPDRFSGSGSGTDFTLKISRVEAEDVGVYYCMQHKALPRTFGQGTKVEIK
  stoichiometry N (Fab per trimer): 1
